± gives the uncertainty stated by the source.

A short description of this data set: abundance fitness (aPCA) (normalised: wild type 0, dead -1); higher = more abundant; growth selection in yeast, the domain comes from the species named. The conditions noted are these: Homo sapiens.
Substance “DnaJ homolog subfamily B member 1 Y52H, P25685” yielded an abundance fitness of -0.03 ± 0.3.
“DnaJ homolog subfamily B member 1 Y52K, P25685” came in with an abundance fitness of -0.337 ± 0.13.
The substance “DnaJ homolog subfamily B member 1 Y52L, P25685” returned an abundance fitness of -0.39 ± 0.071.
In the case of “DnaJ homolog subfamily B member 1 Y52M, P25685”, the abundance fitness was -0.049 ± 0.091.
The substance “DnaJ homolog subfamily B member 1 Y52N, P25685” showed an abundance fitness of -0.195 ± 0.14.
The substance “DnaJ homolog subfamily B member 1 Y52P, P25685” returned an abundance fitness of -0.466 ± 0.1.
Substance “DnaJ homolog subfamily B member 1 Y52Q, P25685” displayed an abundance fitness of -0.306 ± 0.11.
With “DnaJ homolog subfamily B member 1 Y52R, P25685”, the abundance fitness is -0.305 ± 0.071.
Then “DnaJ homolog subfamily B member 1 Y52S, P25685”, with -0.332 ± 0.058.
Regarding “DnaJ homolog subfamily B member 1 Y52T, P25685”, the abundance fitness was -0.333 ± 0.089.
“DnaJ homolog subfamily B member 1 Y52V, P25685” yielded an abundance fitness of -0.249 ± 0.089.
Next, “DnaJ homolog subfamily B member 1 Y52W, P25685”: 0.005 ± 0.074.

The values above are taken from the Human Domainome abundance scans (Beltran et al. 2025).
